Columns and labels:
[1] = Efficacy in db/db mice: body weight, food intake, glucose, biomarkers, daily sc 14 days; format: in vivo
[2] = Body weight and food intake in C57BL/6 mice, fusion protein conjugates, 30 nmol/kg daily 10 days; format: in vivo
Summary of the method: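 Male C57BL/6 mice received fusion protein conjugates by daily subcutaneous injection, with dosing running from Day 1 to Day 10. Body weight was recorded daily per animal and food intake daily per group. Body weight reduction was expressed relative to vehicle percent loss from Day 1. Cumulative food intake reduction was expressed as percent decrease versus vehicle.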

[3] = 30 nmol/kg, FIG. 8A-C, versus Semaglutide, Tirzepatide and MLC014

B1: MLC093: fusion polypeptide SEQ ID NO: 381 conjugated with Moiety B at 33C of Linker (conjugate)
chain: HGEGTFTSDVSSYLEEQAAKEFIAWLVRGGGGAQPGAQPGAQPGAQPGAQPGAQPGAQPGAQPCQEPGAQPGQEPGAQPGQEPGAQPGQEPGAQPGQEPGAQPGQEPGAQPARQGDHCPLGPGRCCRLHTVRASLEDLGWADWVLSPREVQVTMCIGACPSQFRAANLHAQIKTSLHRLKPDTVPAPCCVPASYNPMVLIQKTDTGVSLQTYDDLLAKDCHCI
modifications: Moiety B conjugated at linker Cys33
[1]; [3]
  body weight loss: more body weight loss, food intake suppression and glycemic control
  food intake suppression: more body weight loss, food intake suppression and glycemic control
  glycemic control: more body weight loss, food intake suppression and glycemic control
[1]; Day 15, FIG. 8I
  liver triglyceride content: a trend in reducing liver triglyceride content
[1]; FIG. 8 study
  efficacy: better efficacy than Semaglutide and GDF15 derivative (MLC014)
[1]; terminal plasma Day 15, FIG. 8G
  plasma triglyceride concentration: induced the reduction
[1]; terminal plasma Day 15, FIG. 8H
  plasma ALT concentration: induced the reduction
[2]
  Body weight reduction at 30 nmol/kg (% reduction compared to vehicle)(Day11): 26.2%
  Cumulative food intake reduction at 30 nmol/kg (% reduction compared to vehicle)(Day11): 43.8%
